± gives the uncertainty stated by the source.
Assay: protein stability index of a GFP-peptide fusion (yeast GPS) (PSI 1-4); higher = more stable; sorted into four equal gates, so the index is relative within each strain
Outline: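 Yeast carrying a pooled library were grown to mid-log phase in leucine-free medium. Each library plasmid expresses Cherry and has a tiled 17-residue yeast protein peptide fused downstream of GFP. Cells were sorted into four equal gates by GFP/Cherry ratio, and plasmids from each gate were PCR-amplified, Illumina-sequenced and assigned to strains by barcode. Summing, across gates, the read frequency times the gate number gave each peptide's protein stability index.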

Sequence	protein stability index (doa10∆)	protein stability index (pdr5∆)	protein stability index (san1∆)	protein stability index (ubr1∆)
KKRKIHNGREGSIEEPE [MCD1]	3.26 ± 0.066	3.24 ± 0.06	3.17 ± 0.051	3.27 ± 0.042
LLSEHDDHNGEVWSVSW [YGL100W/SEH1]	2.62 ± 0.068	2.8 ± 0.069	2.36 ± 0.079	2.66 ± 0.1
AQQVPPYGVYHPPFIKY [SIN4]	2.99 ± 0.12	1.61 ± 0.094	2.33 ± 0.074	2.18 ± 0.069
HEAKERIRQKEVTAGEA [SNF6]	3 ± 0.18		2.67 ± 0.25	2.6 ± 0.074
LISNLLFSKNRNEVLES [YCS4]	1.96 ± 0.062	2.68 ± 0.06	2.97 ± 0.052	2.65 ± 0.056
RILSTLDRELLKPSMSV [RPT3]	3.04 ± 0.081	2.73 ± 0.11	3.07 ± 0.073	2.57 ± 0.15
KKIKGKSIQDIVGLATL [SRP21]	3.12 ± 0.039	3.22 ± 0.035	3.177 ± 0.026	3.116 ± 0.031
NATVVDSFKYEPLAPGN [YLR335W/NUP2]	2.95 ± 0.057	3.02 ± 0.054	2.98 ± 0.053	2.94 ± 0.051
FPSIPLPINGPITNKER [RPC31]	2.23 ± 0.058	2.37 ± 0.064	2.17 ± 0.082	2.56 ± 0.11
QFKSKEVEKAHPIRLYT [PRP8]	3.17 ± 0.085	2.88 ± 0.056	2.71 ± 0.063	2.86 ± 0.06
TTGISSTGAADGGYNAQ [SMC2]	3.32 ± 0.13	3.4 ± 0.093	3.23 ± 0.069	3.17 ± 0.11
MSAVPSVQTFGKKKSAT [RPS16A]	1.45 ± 0.1	1.32 ± 0.15	1.26 ± 0.26	1.22 ± 0.13
HDEKSDSLNEWIKFDQE [RPN7]	3.19 ± 0.13	3.29 ± 0.22	3.27 ± 0.076	3.21 ± 0.072
GPRNTEEKGWVPVTKLG [RPS2]	3.55 ± 0.1	3.46 ± 0.1	3.61 ± 0.05	3.67 ± 0.082
MFNDLNSMDISMFSGLD [MED2]	3.18 ± 0.06	3.26 ± 0.054	3.15 ± 0.037	3.12 ± 0.052
VEDELTESIALSSMRFK [RRI1]	3.21 ± 0.067	3.38 ± 0.051	3.21 ± 0.062	3.28 ± 0.051
YDPKDGLYKMMEERDGA [AAR2]	3.41 ± 0.12	2.94 ± 0.11	3.4 ± 0.092	
ESSNEAKKTIQNPLNKS [SIR4]	3.12 ± 0.071	2.76 ± 0.059	2.95 ± 0.047	3.11 ± 0.05
IYAKQQEQLKQMDQQLQ [ARP7]	1.76 ± 0.066	2.05 ± 0.079	2.2 ± 0.1	2.7 ± 0.072
NILFSLWKLLSTVKVSD [YLR018C/POM34]	1.76 ± 0.07	1.46 ± 0.058	1.58 ± 0.12	1.55 ± 0.057
QQQLQQNSKEKNGLGLN [MED2]	2.5 ± 0.29	3.26 ± 0.12	2.42 ± 0.26	2.96 ± 0.13
LNAINNAEKTGKRQVLI [RPS22A]		2.3 ± 0.26		
NKSTSSEAEYSKDIETL [YIL149C/MLP2]	3.19 ± 0.089	2.97 ± 0.099	3.21 ± 0.062	3.26 ± 0.072
LQVADKFFRVKYENKIS [SMC3]	2.14 ± 0.073	2.3 ± 0.05	1.67 ± 0.092	1.52 ± 0.03

Sequence	protein stability index (doa10∆)	protein stability index (pdr5∆)	protein stability index (san1∆)	protein stability index (ubr1∆)
LRSKTSAGRIESNNPSH [SIR4]	2.56 ± 0.1	2.48 ± 0.081	2.55 ± 0.18	2.79 ± 0.098
ASAPLCSPKLPVEKVQR [DLS1]	2.78 ± 0.068	3.07 ± 0.067	2.92 ± 0.053	3.03 ± 0.049
RQEVTKFAKANIGYVMG [RPN4]	1.2 ± 0.15	1.31 ± 0.11	1.21 ± 0.18	1.14 ± 0.065
VRKETYSSYIYKVLKQT [HTB2]	3.08 ± 0.074	3.26 ± 0.065	3.24 ± 0.051	3.12 ± 0.038
VLVGSCAYTGTGDVLLI [RPN1]	3.13 ± 0.094	3.35 ± 0.067	3.41 ± 0.13	3.1 ± 0.075
LPPPEDVAFLKTAYSIY [RPN1]	2.4 ± 0.06	2.36 ± 0.052	2.46 ± 0.069	2.47 ± 0.053
FNIISMTLKEMYQMITM [SMC4]	1.92 ± 0.074	1.97 ± 0.054	2.22 ± 0.075	2.15 ± 0.042
KLYQTEPSGIYSSWSAQ [PRE6]	2.63 ± 0.084	2.15 ± 0.11	2.87 ± 0.11	1.46 ± 0.054
RAQLENEIEGKNEETPQ [RPC25]		3.23 ± 0.14	2.47 ± 0.2	3.38 ± 0.078
SSSMDMQANTNALRRNL [SSN3]	2.63 ± 0.055	2.33 ± 0.05	3.13 ± 0.046	2.28 ± 0.043
EEIVSNSSRFSDPMLQR [YCS4]	3.07 ± 0.096	2.95 ± 0.082	3.28 ± 0.096	3.07 ± 0.056
SKTWETYEMRIHKRYID [RPS20]	2.45 ± 0.13	3 ± 0.091	1.84 ± 0.18	3.21 ± 0.072
SLLLAHFFSKSCSFFAK [NUT1]	1.83 ± 0.057	1.62 ± 0.043	1.61 ± 0.074	1.68 ± 0.039
LLEETQAKLKKNVETLE [SMC4]	3.39 ± 0.092	3.18 ± 0.085	3.31 ± 0.08	3.51 ± 0.071
PTRMVRVAKGSGTSVFE [SRP54]	2.94 ± 0.29			
KQKSWVPSYIHVEKERA [YIL149C/MLP2]	1.79 ± 0.058	2.25 ± 0.048	2.12 ± 0.082	2 ± 0.046
SKASMQKEQNVNNRDSE [YCS4]	2.78 ± 0.069	2.98 ± 0.067	2.05 ± 0.076	2.77 ± 0.042
KIHLYEKKLEDYCRILS [YGL172W/NUP49]	1.54 ± 0.11	2.34 ± 0.12	2.3 ± 0.13	1.78 ± 0.19
IPQDFENEVSDIDVTIV [ESC2]	2.96 ± 0.096	2.34 ± 0.092	2.77 ± 0.11	2.42 ± 0.054
FDSLRNFIVHSPMLKRI [GRR1]	2.89 ± 0.084	2.47 ± 0.079	2.8 ± 0.074	2.64 ± 0.076
HHDYRSYYGIVCLMQIS [RRP6]	2.03 ± 0.085	1.67 ± 0.067	1.32 ± 0.12	1.68 ± 0.076
VLKVDKRFMNTSQNPQR [BRR2]	3 ± 0.056	3.2 ± 0.06	3.21 ± 0.069	2.99 ± 0.04
SVSSPIELNFDAVKDFK [QCR2]	1.89 ± 0.069	1.67 ± 0.065	2.5 ± 0.09	1.57 ± 0.053
YHLTKAVKLGDLKKFTS [RPN3]	1.77 ± 0.065	1.8 ± 0.062	1.54 ± 0.11	1.78 ± 0.052

Sequence	protein stability index (doa10∆)	protein stability index (pdr5∆)	protein stability index (san1∆)	protein stability index (ubr1∆)
GGIVTVRSEMGEPIHKI [FAS1]	3.29 ± 0.18	2.91 ± 0.21		
NLNTDKLKNNASRSQLE [YJL039C/NUP192]	2.22 ± 0.13	2.69 ± 0.065	2.81 ± 0.11	2.69 ± 0.064
DFDLLNKTLTFETETEV [FAS1]	3.34 ± 0.079	3.37 ± 0.067	3.44 ± 0.045	3.3 ± 0.051
NNTHVGRQFCNRLSRIH [YLR018C/POM34]	2.34 ± 0.12	2.69 ± 0.17	2.3 ± 0.23	1.95 ± 0.089
PDPNFENSIGYNNRKCW [PRP8]	3.02 ± 0.098	2.97 ± 0.1	2.98 ± 0.21	3.11 ± 0.12
GEIQLLFQRQKLHEFYL [IRR1]	2.71 ± 0.12	2.96 ± 0.075	2.63 ± 0.061	2.9 ± 0.16
RFEVINNETEQLKAEEK [SMC1]	1.72 ± 0.08	2.06 ± 0.092	3.05 ± 0.13	2.6 ± 0.12
GRYAGKKVVIVKPHDEG [RPL27A]	3.25 ± 0.25	2.72 ± 0.21		2.29 ± 0.26
EYALPKTYNKLHYCVSC [RPS26A]	1.24 ± 0.069	1.42 ± 0.055	1.34 ± 0.12	1.41 ± 0.04
SLTEATKTNVDNNSKAE [YLR335W/NUP2]	3.14 ± 0.052	3.35 ± 0.064	3.14 ± 0.062	3.32 ± 0.042
DEFYINVDKNLNEIKEH [RPN14]	2.51 ± 0.072	2.5 ± 0.054	2.73 ± 0.062	2.92 ± 0.067
DENELKKSEEKLREKVN [MTW1]	2.97 ± 0.27			
SYANHLEESDVEDTLHV [YOR098C/NUP1]	2.98 ± 0.082	2.4 ± 0.065	2.13 ± 0.081	1.97 ± 0.051
NELLLPSELNQLKMVNE [RPC82]	3.14 ± 0.12	2.94 ± 0.13	3.25 ± 0.13	
SEYKVAFPHLYNSRPRS [PRP8]	2.91 ± 0.071	2.66 ± 0.072	2.85 ± 0.086	2.77 ± 0.06
LYFYRDPEEVEQQVAEE [RPS0A]	3.31 ± 0.087	3.31 ± 0.095	3.1 ± 0.082	3.56 ± 0.076
RHNKSHTLCNRCGRRSF [RPL37A]	3.25 ± 0.045	3.18 ± 0.064	2.82 ± 0.042	3.08 ± 0.039
NKTAHLSIPGKSTPEGT [SNU114]	2.94 ± 0.065	3.04 ± 0.061	2.79 ± 0.048	3.01 ± 0.038
SVLQLIVSEDHIILDTI [MED1]	2.2 ± 0.17	2.7 ± 0.19		2.08 ± 0.26
QQQQQQQQQTSPPPQTH [SNF5]	2.765 ± 0.011	2.862 ± 0.011	2.799 ± 0.01	2.824 ± 0.009
NLTPANILNMSMNNDFQ [PGD1]	2.86 ± 0.11	3.22 ± 0.091	3.01 ± 0.068	2.89 ± 0.052
EVFSRPEWMILTCLPVP [RPO21]	1.42 ± 0.12	1.48 ± 0.12	1.51 ± 0.14	1.67 ± 0.063
DANRNANNIVNIVSDAG [GRR1]	3.07 ± 0.068	3.06 ± 0.059	2.99 ± 0.041	2.97 ± 0.067

From the supplement of paper PMC9732359
